*1 amine or outer side, *2 acyl side, *3 side chain or, on linkers, in order; H or OH if unused. Where no end group is shown, it is not given here. Side-chain parts run from the residue outwards. [ ]: non-standard residue; d: D form. The star is where a group is joined. C20 diacid = O=C(O)CCCCCCCCCCCCCCCCCCC(=O)*; C18 diacid = O=C(O)CCCCCCCCCCCCCCCCC(=O)*; γGlu = O=C(O)[C@H](CCC(=O)[*:2])N[*:1]; Desaminohistidyl = O=C(CCc1c[nH]cn1)*; Ac4c = NC1(C(=O)O)CCC1; AEEA = NCCOCCOCC(=O)O; Aib = CC(C)(N)C(=O)O
Experiments:
human GLP-1 receptor [1] = target: T1, human GLP-1 receptor (human, UniProt P43220 24-463); experiment: SPA displacement of [125I]GLP-1(7-36)NH2 from hGLP-1R BHK membranes
T1 construct: whole, on cells; reporter assay on whole cells
Method: The GLP-1 receptor binding of each derivatives were determined with competitive binding, displacing [¹²⁵I]GLP-1 bound to GLP-1 receptors expressed in cell membranes associated with wheat germ agglutinin (WGA) scintillation proximity assay (SPA) beads. Each derivative was added in a series of concentrations to isolated membranes comprising the human GLP-1 receptor and displacement of the labelled radioligand was monitored. The receptor binding was reported as the concentration at which half of the labelled ligand is displaced from the receptor, the IC⁵⁰ value.
1. For the receptor binding assay 50 μl of the assay buffer was added to each well of an assay plate. [0588] 2. Test compounds were serially diluted to give the following concentrations: 8×10EE-7 M, 8×10EE-8 M, 8×10EE-9 M, 8×10EE-10 M, 8×10EE-11 M, 8×10EE-12 M and 8×10EE-13 M. Twenty-five μl were added to appropriate wells in the assay plate. [0589] 3. Cell membrane aliquots were thawed and diluted to their working concentration. Fifty μl were added to each well in the assay plate. [0590] 4. WGA SPA beads were suspended in assay buffer at 20 mg/ml. The suspension was diluted to 10 mg/ml in assay buffer just prior to addition to the assay plate. Fifty μl were added to each well in the assay plate. [0591] 5. […] A 25 μl aliquot was reserved for measuring total counts/well. [0592] 6. The assay plate was incubated for 2 h at 30° C. [0593] 7. The assay plate was centrifuged for 10 min. [0594] 8. The assay plate was read in a Perkin Elmer TopCount NXT instrument.

human glucagon receptor [2] = target: T2, human glucagon receptor (human, UniProt P47871 26-477); experiment: cell-based or functional assay
T2 sequence (P47871 26-477): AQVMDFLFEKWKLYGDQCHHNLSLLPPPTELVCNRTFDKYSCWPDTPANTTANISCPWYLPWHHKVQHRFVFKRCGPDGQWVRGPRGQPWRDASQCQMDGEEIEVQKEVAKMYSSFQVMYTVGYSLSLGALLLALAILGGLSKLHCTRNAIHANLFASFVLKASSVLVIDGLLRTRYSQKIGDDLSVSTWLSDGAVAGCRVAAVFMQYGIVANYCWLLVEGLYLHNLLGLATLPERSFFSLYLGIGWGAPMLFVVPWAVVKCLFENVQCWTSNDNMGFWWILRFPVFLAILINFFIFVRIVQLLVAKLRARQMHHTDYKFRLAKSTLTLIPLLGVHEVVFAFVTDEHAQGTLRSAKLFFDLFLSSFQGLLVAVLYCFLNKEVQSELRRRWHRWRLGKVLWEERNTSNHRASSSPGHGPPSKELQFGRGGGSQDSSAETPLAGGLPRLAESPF

human GLP-1 receptor [3] = target: T1, human GLP-1 receptor; experiment: cell-based or functional assay
human glucagon receptor [4] = target: T2, human glucagon receptor; experiment: SPA displacement of [125I]-glucagon from human glucagon receptor BHK membranes
Method: 1. For the receptor binding assay 50 μl of the assay buffer was added to each well of an assay plate. [0603] 2. Test compounds were serially diluted to give the following concentrations: 8×10EE-7 M, 8×10EE-8 M, 8×10EE-9 M, 8×10EE-10 M, 8×10EE-11 M, 8×10EE-12 M and 8×10EE-13 M. Twenty-five μl were added to appropriate wells in the assay plate. [0604] 3. Cell membrane aliquots were thawed and diluted to their working concentration. Fifty μl were added to each well in the assay plate. [0605] 4. WGA SPA beads were suspended in assay buffer at 20 mg/ml. The suspension was diluted to 10 mg/ml in assay buffer just prior to addition to the assay plate. Fifty μl were added to each well in the assay plate. [0606] 5. […] A 25 μl aliquot was reserved for measuring total counts/well. […] 6. The assay plate was incubated for 2 h at 25° C. [0608] 7. The assay plate was centrifuged for 10 min at 1500 rpm. [0609] 8. The assay plate was read in a Perkin Elmer TopCount NXT instrument.

| Binder | IC50 (human GLP-1 receptor [1]) | EC50 GlucagonR [pM], CRE luciferase reporter gene assay (human glucagon receptor [2]) | EC50 GLP-1R [pM], CRE luciferase reporter gene assay (human GLP-1 receptor [3]) | IC50 (human glucagon receptor [4]) |
| --- | --- | --- | --- | --- |
| [Desaminohistidyl][Aib]HGTFTSDVSKYLEEQAAREFIAWLLK([Gly-Ser-Glu-Gly-Ser-γGlu-γGlu-C20 diacid])T-NH2 | 0.4 nM | 111 pM | 5 pM | 6 nM |
| [Desaminohistidyl]AHGTFTSDVSRYLEEQAARK([AEEA-AEEA-γGlu-γGlu-γGlu-C18 diacid])FIAWLLR | 2.2 nM | 1290 pM | 8 pM | 126 nM |
| [Desaminohistidyl][Aib]HGTFTSDVSKYLEEQAAREFIAWLLK([γGlu-γGlu-Ser-Gly-Glu-Ser-Gly-C18 diacid])T (Named as peptide, not peptide amide (C-terminal acid)) | 2.3 nM | 84.5 pM | 5.5 pM | 11.9 nM |
| [Desaminohistidyl][Aib]HGTFTSDVSKYLEEQAAREFIAWLLK([Ado-Ado-γGlu-C18 diacid])T-NH2 | 0.7 nM | 83 pM | 6 pM | 20.3 nM |
| [Desaminohistidyl][Ac4c]HGTFTSDVSKYLEGRAAREFIAWLLK([Gly-Ser-Glu-Gly-Ser-γGlu-γGlu-C18 diacid])T-NH2 | 0.3 nM | 28 pM | 12 pM | 7.2 nM |
| [Desaminohistidyl][Ac4c]HGTFTSDYSKYLEEQAAREFIAWLLKK([Gly-Ser-Glu-Gly-Ser-γGlu-γGlu-C18 diacid])-NH2 | 0.7 nM | 117 pM | 5.7 pM | 16 nM |
| XXHGTFTSDYSRYLEGRAAREFIAWLLRK (Imp (desamino-His) at 7; Acb at 8; Lys35 N-epsilon acylated with 17-carboxyheptadecanoyl-γGlu-γGlu-Ado-γGlu-Ado-γGlu-Ado-γGlu-; C-terminal amide (GLP-1(7-37) numbering)) | 6.8 nM | 226 pM | 18.5 pM | 36.7 nM |
| [Desaminohistidyl][Aib]HGTFTSDVSRYLEGQAAREFIAWLLK([Gly-Ser-Glu-Gly-Ser-γGlu-γGlu-C18 diacid])T-NH2 | 0.9 nM | 143 pM | 17 pM | 8.9 nM |
| XXHGTFTSDYSRYLEEQAAREFIAWLLRK (Imp (desamino-His) at 7; Acb at 8; Lys35 N-epsilon acylated with 17-carboxyheptadecanoyl-γGlu-γGlu-Ado-γGlu-Ado-γGlu-Ado-γGlu-; C-terminal amide (GLP-1(7-37) numbering)) | 0.9 nM | 71 pM | 3 pM | 5.6 nM |
| XXHGTFTSDYSKYLERRAAREFIAWLLKK (Imp (desamino-His) at 7; Acb at 8; Lys35 N-epsilon acylated with 17-carboxyheptadecanoyl-γGlu-γGlu-Ado-γGlu-Ado-γGlu-Ado-γGlu-; C-terminal amide (GLP-1(7-37) numbering)) | 1.8 nM | 54 pM | 8 pM | 8.6 nM |
| [Desaminohistidyl][Ac4c]HGTFTSDVSKYLEEQAAREFIAWLLKK([Gly-Ser-Glu-Gly-Ser-γGlu-γGlu-C18 diacid])-NH2 | 0.1 nM | 163 pM | 2 pM | 43.9 nM |
| XXHGTFTSDYSKYLEEQAAREFIAWLLKK (Imp (desamino-His) at 7; Acb at 8; Lys35 N-epsilon acylated with 17-carboxyheptadecanoyl-γGlu-γGlu-Ado-γGlu-Ado-γGlu-Ado-γGlu-; C-terminal amide (GLP-1(7-37) numbering)) | 1.4 nM | 78 pM | 3 pM | 6.9 nM |
| XXHGTFTSDYSKYLERQAAREFIAWLLKK (Imp (desamino-His) at 7; Acb at 8; Lys35 N-epsilon acylated with 17-carboxyheptadecanoyl-γGlu-γGlu-Ado-γGlu-Ado-γGlu-Ado-γGlu-; C-terminal amide (GLP-1(7-37) numbering)) | 2.3 nM | 84 pM | 7 pM | 11.7 nM |
| XXHGTFTSDYSKYLEGRAAREFIAWLLKK (Imp (desamino-His) at 7; Acb at 8; Lys35 N-epsilon acylated with 17-carboxyheptadecanoyl-γGlu-γGlu-Ado-γGlu-Ado-γGlu-Ado-γGlu-; C-terminal amide (GLP-1(7-37) numbering)) | 7.3 nM | 222 pM | 16 pM | 22.5 nM |
| [Desaminohistidyl][Aib]HGTFTSDVSRYLEEQAAREFIAWLLK([Gly-Ser-Glu-Gly-Ser-γGlu-γGlu-C18 diacid])T-NH2 | 0.5 nM | 60 pM | 6 pM | 3.8 nM |
| [Desaminohistidyl][Aib]HGTFTSDVSKYLEAQAAREFIAWLLK([γGlu-γGlu-Ado-γGlu-γGlu-C18 diacid])T-NH2 | 0.6 nM | 21 pM | 3 pM | 1.7 nM |
| [Desaminohistidyl][Aib]HGTFTSDVSKYLEARAAREFIAWLLKGGG (not fully specified (residue 28); printed as Nε34-[(4S)-4-carboxy-4-[[2-[2-[2-[[2-[2-[2-[[(4S)-4-carboxy-4-[[(4S)-4-carboxy-4-(17-carboxyheptadecanoylamino)butanoyl]amino]butanoyl]amino]ethoxy]ethoxy]acetyl]amino]ethoxy]ethoxy]acetyl]amino]butanoyl]-[Imp7,Aib8,His9,Lys18,Ala22,Arg23,Arg26,Leu33,Gly36]-GLP-1-(7-37)-peptide) | 0.3 nM | 39.4 pM | 2.2 pM | 3.7 nM |
| [Desaminohistidyl][Aib]HGTFTSDVSRYLEGRAAREFIAWLLK([γGlu-γGlu-AEEA-γGlu-γGlu-C18 diacid])GAG | 1 nM | 248 pM | 3 pM | 18.8 nM |
| [Desaminohistidyl][Aib]HGTFTSDVSRYLEEQAARK([AEEA-AEEA-γGlu-γGlu-γGlu-C18 diacid])FIAWLLR | 2.9 nM | 143 pM | 7 pM | 21.2 nM |
| [Desaminohistidyl]AHGTFTSDVSKYLEGRAAREFIAWLLK([Ado-Ado-γGlu-γGlu-γGlu-C18 diacid])T-NH2 | 1 nM | 229 pM | 8 pM | 25.9 nM |

From patent US20160102129A1 (Novo Nordisk, published 2016)
